Results reported in the supplement of paper PMC10724198.
± gives the standard deviation of the averaged measurements.

The sequences below were run on Saccharomyces cerevisiae (assay: protein stability index of tFT-peptide fusion (C-terminal peptide) (PSI (0-1 scale)); higher = more stable (slower turnover)). Settings: genetic background: wild type; temperature: 30 C.
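Also: PSI is a weighted mean of sequencing reads over stability bins, variants kept only with over 10 reads, mCherry proximal and sfGFP distal, peptide attached via GGGS linker.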

Row | Sequence | protein stability index
1 | RLSNIARRQENG | 0.623 ± 0.017
2 | RLSPPPTLSRFH | 0.643 ± 0.03
3 | RLSSPTRINHPN | 0.71 ± 0.04
4 | RLTLKKMIKQNV | 0.56 ± 0.016
5 | RLTLPSQPHAPA | 0.694 ± 0.098
6 | RLTYVGDYELYV | 0.686 ± 0.053
7 | RLVAHPSRPLPV | 0.647 ± 0.033
8 | RLVISPRSRPCP | 0.725 ± 0.069
9 | RLVLRGRWGIGR | 0.618 ± 0.0014
10 | RLVTSCSAAGSG | 0.671 ± 0.007
11 | RLWKQPWLTMAF | 0.496 ± 0.038
12 | RLWPPGGEFRLV | 0.719 ± 0.078
13 | RLWSSFKRHGAA | 0.743 ± 0.022
14 | RLYCSWEFTFVQ | 0.617 ± 0.019
15 | RMATGNPAPHPP | 0.735 ± 0.04
16 | RMSHFNTDSVHF | 0.761 ± 0.019
17 | RNGALSVVCDYV | 0.698 ± 0.15
18 | RNIMKQQNTSIR | 0.717 ± 0.078
19 | RNIQKKKKIQHI | 0.514 ± 0.047
20 | RNKEPRSSRQNS | 0.578 ± 0.009
21 | RNRTNVETKTGS | 0.6966 ± 0.0034
22 | RPAPPLFVSSPG | 0.699 ± 0.0097
23 | RPAPPPHPLSPV | 0.7 ± 0.031
24 | RPEVRIHITSQS | 0.655 ± 0.017
25 | RPFPLTRPTLLF | 0.67 ± 0.016

Row | Sequence | protein stability index
26 | RPGDAASGARGA | 0.691 ± 0.081
27 | RPGPRAASADCP | 0.72 ± 0.025
28 | RPIPMEGAYYLV | 0.693 ± 0.027
29 | RPKPKRIGREEP | 0.63 ± 0.083
30 | RPLPPLPPPSCP | 0.71 ± 0.046
31 | RPLPPPPPPRSP | 0.741 ± 0.21
32 | RPPAPQTATPHR | 0.726 ± 0.013
33 | RPPCFRPPPPPL | 0.715 ± 0.072
34 | RPPPGTPPGWSP | 0.73 ± 0.028
35 | RPPPPLPQAPPT | 0.679 ± 0.0082
36 | RPPPPPSPPPPP | 0.674 ± 0.073
37 | RPPPPSPAPTPP | 0.723 ± 0.045
38 | RPPPRPPHPPPL | 0.6791 ± 0.0048
39 | RPPYIALAPSDR | 0.694 ± 0.0097
40 | RPPYRRSPPRSP | 0.616 ± 0.019
41 | RPRVETGGLPWV | 0.703 ± 0.029
42 | RPSHSRPITLPT | 0.707 ± 0.12
43 | RPSLPPSPPPPP | 0.848 ± 0.22
44 | RPSLTPSPPPFP | 0.64 ± 0.018
45 | RPSPSAQFITCA | 0.646 ± 0.013
46 | RPSVSNVSEAEE | 0.6479 ± 0.0037
47 | RPTPLSTPPPLG | 0.644 ± 0.039
48 | RPTQYIYGINET | 0.6525 ± 0.0034
49 | RQDGSPREGIRH | 0.713 ± 0.04
50 | RQKNKIATVVEE | 0.664 ± 0.026

Row | Sequence | protein stability index
51 | RQRSTGGISNRS | 0.718 ± 0.043
52 | RQSLEDSLLHQH | 0.774 ± 0.081
53 | RRAAVGGCLGGW | 0.726 ± 0.017
54 | RRAAYARVFCRI | 0.641 ± 0.046
55 | RRADFSWPVVVE | 0.591 ± 0.022
56 | RRARSAGADPRP | 0.684 ± 0.02
57 | RRDRRVGEGEGV | 0.699 ± 0.059
58 | RREKQKTPAKKT | 0.634 ± 0.034
59 | RRGEKKDEKGGR | 0.67 ± 0.062
60 | RRGLHWQAVCRY | 0.733 ± 0.023
61 | RRGRNDLEESMR | 0.702 ± 0.0078
62 | RRGVAEGVDGEG | 0.615 ± 0.0071
63 | RRGYEVSSLSDD | 0.672 ± 0.0042
64 | RRHRPKNEVPLC | 0.705 ± 0.029
65 | RRIIISSSYIYE | 0.672 ± 0.012
66 | RRIQNHPDSTSA | 0.696 ± 0.067
67 | RRKGVAGKWARR | 0.586 ± 0.058
68 | RRKLMLWTSKLE | 0.705 ± 0.05
69 | RRLLLAGTQLYV | 0.598 ± 0.073
70 | RRLMMPSGQGLT | 0.702 ± 0.031
71 | RRLNNTPPVENC | 0.753 ± 0.15
72 | RRNDRKKKSIRI | 0.684 ± 0.059
73 | RRPAPTRPPHTK | 0.711 ± 0.013
74 | RRPLAPHPPLPP | 0.678 ± 0.01
75 | RRPLLSTPAPCS | 0.755 ± 0.025

Row | Sequence | protein stability index
76 | RRPRKSAAGLRG | 0.768 ± 0.08
77 | RRPRPRSGWILL | 0.69 ± 0.047
78 | RRRRSITEHRSS | 0.69279 ± 0.00018
79 | RRRSSRPAPPPL | 0.698 ± 0.023
80 | RRRTGRRNCTET | 0.712 ± 0.038
81 | RRSIAVEFSGTG | 0.679 ± 0.041
82 | RRSTIHSRLFGA | 0.6786 ± 0.0041
83 | RRTKKERQKSWK | 0.649 ± 0.038
84 | RRVCLIASLWGC | 0.625 ± 0.023
85 | RRVELCWAAGVR | 0.641 ± 0.025
86 | RRVGVVAWGRGG | 0.71 ± 0.01
87 | RRVRGGAAEKET | 0.723 ± 0.1
88 | RSALFLLTLVPI | 0.565 ± 0.018
89 | RSDKRTRYRIII | 0.751 ± 0.17
90 | RSFFDRLNRSLS | 0.666 ± 0.032
91 | RSFYDNVLRPFK | 0.776 ± 0.035
92 | RSGENTVKPVRQ | 0.658 ± 0.029
93 | RSGGGRRGVGWV | 0.641 ± 0.067
94 | RSGGVRCNDVRR | 0.675 ± 0.05
95 | RSGSGGVAGRRE | 0.692 ± 0.022
96 | RSLLLINRPTPP | 0.714 ± 0.015
97 | RSLPSSPTPPED | 0.755 ± 0.081
98 | RSLVALSRRLRG | 0.6374 ± 0.0023
99 | RSLWGPRVGVFA | 0.594 ± 0.014
100 | RSPLNTAPLRNR | 0.682 ± 0.025

Row | Sequence | protein stability index
101 | RSPRSSSPHPIY | 0.7649 ± 0.006
102 | RSPSCSPSAVPL | 0.738 ± 0.063
103 | RSQIHEILLYLF | 0.492 ± 0.082
104 | RSQRRWCSKIRV | 0.625 ± 0.095
105 | RSRLPPPPLLFP | 0.702 ± 0.048
106 | RSRLPTPRLYPP | 0.708 ± 0.01
107 | RSRPPPPPLLFP | 0.701 ± 0.043
108 | RSRSKKKKRKQY | 0.671 ± 0.042
109 | RSRTSKGGNFII | 0.6766 ± 0.0053
110 | RSSNRRAIRSHD | 0.7106 ± 0.0019
111 | RSTPRPSSRDSL | 0.7789 ± 0.006
112 | RSTQRWAVAWSG | 0.678 ± 0.09
113 | RSVPLLNPGFHY | 0.663 ± 0.026
114 | RSYSSTGAGDDK | 0.721 ± 0.15
115 | RTAGSARIESAL | 0.645 ± 0.017
116 | RTDALKVVADMI | 0.682 ± 0.034
117 | RTEMASLERKSF | 0.696 ± 0.017
118 | RTGGIVATRASE | 0.779 ± 0.13
119 | RTHPPADAWYLS | 0.698 ± 0.035
120 | RTPMAIDALCGS | 0.637 ± 0.045
121 | RTPPLPLLPPHP | 0.788 ± 0.052
122 | RTQKNMKKSYCG | 0.63 ± 0.0075
123 | RTQMLIIDKRNS | 0.6437 ± 0.0028
124 | RTRMSEGECIST | 0.708 ± 0.053
125 | RTRPAMSRCSKR | 0.704 ± 0.045

Row | Sequence | protein stability index
126 | RTRRRQELNHSK | 0.735 ± 0.2
127 | RTSNARLLPRIG | 0.681 ± 0.034
128 | RVCYVYIGVTMH | 0.634 ± 0.19
129 | RVDRVFGGFGGS | 0.724 ± 0.14
130 | RVFGSFLSGEQF | 0.70035 ± 0.00058
131 | RVFTGLCRPFGV | 0.736 ± 0.012
132 | RVGERGEGGGVV | 0.638 ± 0.014
133 | RVGYVPNFFCVL | 0.6254 ± 0.0038
134 | RVIIWDRRFLAG | 0.6793 ± 0.0026
135 | RVIVRGREIEIV | 0.6782 ± 0.0018
136 | RVLDNYLTDYCL | 0.675 ± 0.061
137 | RVLPSDSPVAPA | 0.667 ± 0.044
138 | RVLRKIWEWKKG | 0.685 ± 0.051
139 | RVLRREKPVVHC | 0.603 ± 0.008
140 | RVLVRLFGRGKA | 0.688 ± 0.025
141 | RVLVSPPPPLPS | 0.688 ± 0.026
142 | RVMELEGRSKLK | 0.633 ± 0.026
143 | RVQAVTNKVAAR | 0.692 ± 0.012
144 | RVRCPVVSGGRG | 0.707 ± 0.099
145 | RVRSKNIKIRWK | 0.798 ± 0.029
146 | RVTRPSARLLSP | 0.639 ± 0.084
